The record followed here is patent US20240092848A1 (UNIVERSIT LIBRE DE BRUXELLES, published 2024).

Side chains are listed from the residue outwards. Ends that are not written are not given here. AFM tip = not defined here

Test [1] deals with T1, Reck-CK-Fc.
T1 chain: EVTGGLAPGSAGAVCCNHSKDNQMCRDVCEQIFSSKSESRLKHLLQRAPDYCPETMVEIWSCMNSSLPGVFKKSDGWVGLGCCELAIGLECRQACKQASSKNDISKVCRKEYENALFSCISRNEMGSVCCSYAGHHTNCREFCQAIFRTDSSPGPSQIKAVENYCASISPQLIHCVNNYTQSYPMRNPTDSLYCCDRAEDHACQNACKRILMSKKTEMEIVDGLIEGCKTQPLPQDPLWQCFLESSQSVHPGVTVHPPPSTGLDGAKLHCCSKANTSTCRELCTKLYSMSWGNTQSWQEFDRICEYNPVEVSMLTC
Put plainly: isothermal titration calorimetry with Reck-CK-Fc, 25 °C.

A further test concerns the target T2, HA-Reck.
T2 construct: whole, on cells; Co-expressed with V5-tagged Wnt ligands in GPR124-/-;RECK-/- HEK293 cells for PLA
T2 sequence (O95980 23-942, species assumed, looked up): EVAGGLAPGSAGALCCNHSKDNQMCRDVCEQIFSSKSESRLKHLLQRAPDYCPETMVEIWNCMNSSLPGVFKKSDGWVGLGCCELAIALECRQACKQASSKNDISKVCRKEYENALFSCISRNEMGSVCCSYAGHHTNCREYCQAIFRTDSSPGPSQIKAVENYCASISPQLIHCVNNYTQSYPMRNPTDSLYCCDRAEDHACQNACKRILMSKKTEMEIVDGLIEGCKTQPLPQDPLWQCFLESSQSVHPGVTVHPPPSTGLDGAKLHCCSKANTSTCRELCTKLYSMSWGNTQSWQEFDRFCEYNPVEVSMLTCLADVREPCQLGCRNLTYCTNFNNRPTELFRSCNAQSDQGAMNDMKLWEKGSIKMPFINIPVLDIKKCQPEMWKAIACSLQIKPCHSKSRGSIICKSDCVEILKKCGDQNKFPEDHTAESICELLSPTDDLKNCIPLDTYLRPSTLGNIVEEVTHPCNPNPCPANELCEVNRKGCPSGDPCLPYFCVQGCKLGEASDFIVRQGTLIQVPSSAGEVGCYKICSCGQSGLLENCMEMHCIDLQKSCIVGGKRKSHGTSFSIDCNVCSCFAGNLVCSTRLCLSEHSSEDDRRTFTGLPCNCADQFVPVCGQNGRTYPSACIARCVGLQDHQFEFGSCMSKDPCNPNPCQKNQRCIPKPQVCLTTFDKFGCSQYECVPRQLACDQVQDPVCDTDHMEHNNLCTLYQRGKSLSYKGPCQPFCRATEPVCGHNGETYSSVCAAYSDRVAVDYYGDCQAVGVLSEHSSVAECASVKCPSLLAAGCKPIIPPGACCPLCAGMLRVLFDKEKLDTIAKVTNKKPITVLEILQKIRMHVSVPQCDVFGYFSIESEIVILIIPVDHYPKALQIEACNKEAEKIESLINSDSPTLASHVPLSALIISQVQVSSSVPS
Put plainly: proximity ligation assay (anti-V5/anti-HA), with against without co-expressed Gpr124. As to the method:
Cells were fixed with 4% paraformaldehyde for 10 min at room temperature (RT) 48 h post transfection. For immunofluorescence staining (IF), cells were blocked in 1% BSA-PBS for 30 min before being exposed to primary antibodies for 1 h at RT. After three PBS washes, cells were incubated with secondary antibodies for 1 h at RT. For anti-V5 staining of Wnt ligands, cells were additionally washes for 10 min in PBS 0.1% Tween 20 before incubation with the secondary antibody solution. For the proximity ligation assay (PLA) (Sigma-Aldrich, St. Louis, MO), cells were blocked for 30 min at 37° C. with the Blocking solution provided by the manufacturer before being incubated with the primary antibodies for 1 h at RT. Cells were washed three times and incubated with the PLA probes anti-rabbit PLUS and anti-mouse MINUS for 1 h at 37° C. […]
Although Reck appears to be the dominant Wnt7 binding determinant, its function in Wnt signaling is known to rely on its capacity to form a complex with Gpr124 through its N-terminal CK domain (Y. Zhou, J. Nathans, Dev. Cell. 31, 248-256 (2014); B. Vanhollebeke et al., Elife. 4, 1-25 (2015)), a domain that is shown herein to be additionally implicated in Wnt7a binding. […] However, a 4-fold increase in Wnt7a-V5/HA-Reck PLAs signals was detected upon co-expression of untagged Gpr124 (FIG. 1F). […]

The target of test [2] is T1, Reck-CK-Fc. Put plainly: single-molecule force spectroscopy (AFM tip with PEG-linked pWnt7b, surface coated with Reck-CK-Fc on protein G).
The target in test [3] is T1, Reck-CK-Fc. Put plainly: isothermal titration calorimetry, peptide titrated into Reck-CK-Fc, 25 °C.

B1: pWnt7b (peptide)
peptide: VEVVRASRLRQPTFLRIKQLRSYQKPMET
notes: also called synthetic Wnt7b linker peptide
In the test with Reck-CK-Fc [1], B1 returned a Kd of 1.2 µM.

B2: Wnt7a-V5 (ligand)
chain: LGASIICNKIPGLAPRQRAICQSRPDAIIVIGEGSQMGLDECQFQFRNGRWNCSALGERTVFGKELKVGSREAAFTYAIIAAGVAHAITAACTQGNLSDCGCDKEKQGQYHRDEGWKWGGCSADIRYGIGFAKVFVDAREIKQNARTLMNLHNNEAGRKILEENMKLECKCHGVSGSCTTKTCWTTLPQFRELGYVLKDKYNEAVHVEPVRASRNKRPTFLKIKKPLSYRKPMDTDLVYIEKSPNYCEEDPVTGSVGTQGRACNKTAPQASGCDLMCCGRGYNTHQYARVWQCNCKFHWCCYVKCNTCSERTEMYTCK
modifications: palmitoleic acid at Serine 206 (precursor numbering)
notes: Transiently expressed in HEK293 cells; also called V5-tagged Wnt7a; full-length Wnt7a; not shown: V5 tag
With B2, the “fold increase in PLA signal upon co-expression of untagged Gpr124” value with HA-Reck amounted to 4 fold.

B3: pWnt7b peptide on the AFM tip (peptide)
peptide: VEVVRASRLRQPTFLRIKQLRSYQKPMETC([NHS‑PEG27‑maleimide linker-AFM tip])
modifications: reading uncertain
notes: Used in single-molecule force spectroscopy; also called Pep7b
Molecule B3 had a Kd with Reck-CK-Fc [2] of 5 µM.

B4: pWnt7a (peptide)
peptide: VEPVRASRNKRPTFLKIKKPLSYRKPMDT
notes: Synthetic, purity over 90%; also called synthetic Wnt7a linker peptide; pWnt7a 238-266
In the test with Reck-CK-Fc [3], B4 displayed a Kd of 7 µM.
